This sample holds only a part of the variants without activity.

B1: TPR 5TU (parent)
chain: GGAUCUUCUCGAUCUAACAAAAAAGACAAAUCUGCCACAAAGCUUGAGAGCAUCUUCGGAUGCAGAGGCGGCAGCCUUCGGUGGCGCGAUAGCGCCAACGUUCUCAACUAUGACACGCAAAACGCGUGCUCCGUUGAAUGGAGUUUAUCAUG

Variants of B1 are the subject of the data set. As to the kind of experiment: polymerase ribozyme fitness, log enrichment relative to wild type (log ratio); higher = more active; in vitro selection for triplet polymerase activity. An outline of the steps:
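Fitness compares each genotype's enrichment to that of the wild type on a logarithmic scale, averaging replicates with inverse-variance weights. The logarithm is base 2. Enrichment came from Illumina sequencing of input and output libraries after one triplicate round of in vitro selection, which included frozen incubation at −7 °C, of PCR-built, transcribed mutant libraries of each subunit of a heterodimeric triplet polymerase ribozyme. Only genotypes with ≥10 input reads and ≥1 read per output were kept.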
As to GGAUCUUCUCGAUCUAACAAUAAAGACAAAUCUGCCACAAAGCUUGAGAGCAUCUUCGGAUGCAGAGGCGGCAGCCUUCGGUGGCGCGAUUGCGCCAACGUUCUCAACUAUGACACGCAAAACGCGUGCUCCGUUGAAUGGAGUUUAUCAUG [A21U A91U], the “polymerase ribozyme fitness (log ratio)” value was not above -4.2.

Consider GGAUCUUCUCGAUCUAACAAUAAAGACAAAUCUGCCACAAAGCUUGAGAGCAUCUUCGGAUGCAGAGGCGGCGGCCUUGGGUGUCGCGAUAGCGCCAACGUUCUCAACUAUGACACGCAAAACGCGUGCUCCGUUGAAUGGAGUUUAUGAUG [A21U A73G C79G G84U C149G], for which the “polymerase ribozyme fitness (log ratio)” value was not above -4.2.

GGAUCUUCUCGAUCUAACAAUAAAGACAAAUCUGUCACAAAGCUUGAGAGCAUCUUCAGAUGCAGAGACGGCAGCCUUCGGUGGCGCGAUAGCGCCAACGUUCUCAACUAUGACGCGUAAAACGCGUGCUCCGUUGAAUGAAGUUUAUCAUG [A21U C35U G58A G68A A115G C118U G141A]: the “polymerase ribozyme fitness (log ratio)” value was not above -4.2.

For the variant GGAUCUUCUCGAUCUAACAAUAAAGACACUUAUGCCACAAAGCUUGAGAGCAUCUUCGGAUGCAGAGGCGGCAGCCUUCGGUGGCACGAUAGCGCCAAUGUUCUCAACUAUGACACGUAAAACGCGUGCUCCGAUGAAUGGAGUCUAUGAUG [A21U A29C A30U C32A G86A C99U C118U U134A U145C C149G], the “polymerase ribozyme fitness (log ratio)” value is not above -4.2.

Take GGAUCUUCUCGAUCUAACAAUAAAGACAAAUCUGCCACAAAGCUUGAGACCAUCUUAGGAUGCAGAGGCGGCAGCCUUCGGUGGCGCGAUAGCGCCGACGUUCUCAACUAUGACACGCAAAACGCGUGCUCCGUUGAAUGGAGUUUAUCAUG [A21U G50C C57A A97G]: the “polymerase ribozyme fitness (log ratio)” value was -3.79.

As for GGAUCUUCUCGAUCUAACAAUAAAGACAAAUCUGCCACAAAGCUUGAGAGCAUCUUAGGAUGCAGAGGCGGCAGCCUUCGGUGGCGCGAUAGCGCCAACGUUCUCAACUAUGACACGCAAAACGCGUGCUCCGUUGAAUGGAGUUUAUCAUG [A21U C57A], the “polymerase ribozyme fitness (log ratio)” value came to 0.469.

In the case of GGAUCUUCUCGAUCUAACAAUAAAGUCAAAUCUGCCACAUAGCUUGAGAGCAUCUUCGGAUGCAGAGGCGGCAGCCUUCGGUGGCGCGAUAGCGCCAACGUUCUCAACUAUGACACGCAAAACGCGUGCUCCGUUGAAUGGAGUUUAUCAUG [A21U A26U A40U], the “polymerase ribozyme fitness (log ratio)” value is -3.62.

Consider GGAUCUUCUCGAUCUAACAAUAAAGACAAUUCAGCCACAAAGCUUGAGAGCAUGUUCGGAUGCAGAGGCGGCAGCCUUCGGUGGCGGGAUAGCGCCAACGUUCUCAACUAUGACACGCAAAACGCGUGCUCCGUUGAAUGGAGUUUAUCAUG [A21U A30U U33A C54G C87G], for which the “polymerase ribozyme fitness (log ratio)” value is not above -4.2.

GGAUCUUCUCGAUCUAACAAUAAAGACAAAUCUGUCACAAAGCUUGAGAGCAUCUACGGAUGCAGAGGCGGCAGCCUUCGGUGGCGCGAUAGCGCAAACGUUCUCAACUAUGACACGCAAAACGCGUGCUCCGUUGAAUGGUGUUUAUCAUG [A21U C35U U56A C96A A142U]: the “polymerase ribozyme fitness (log ratio)” value is -2.21.

On to GGAUCUUCUCGAUCUAACAAUAAAGACAAAUCUGCCACAAAGCUUGAGAGCAUCUUCGGAUGCAGAGGCGGCAGCCUUCGGUGGCGCGAUAGCGCCAACGUUCUCAACUAUGACAUGCAAAACGCGUGCUCCGUUGAAUGGAGUUUAUCAUG [A21U C116U], for which the “polymerase ribozyme fitness (log ratio)” value was 0.00754.

Regarding GGAUCUUCUCGAUCUAACAAUAAAGACAAAUCUGCCACAAAGCUUGAGAACAUCUUCGGAUGUAGAGGCGGCAGUCUUCGGUGGCGCGAUAGCGCCUACGUUCUCAACUAUGACACGCAAAACGCGUGCUCCGUUGAAUGGAGUUUAUCAUG [A21U G50A C63U C75U A97U], the “polymerase ribozyme fitness (log ratio)” value was -1.25.

Regarding GGAUCUUCUCGAUCUAACAAUAAAGACAAAUCUGCCACGAAGCUUGAGAGCCUCUUCAGAUGCAGAGGCGGCAGCCUUCAGUUGAGCGAUAGAGCCAACGUUCUCAACUAUGACACGCAAAACGCGUGCUCCGUUGAAUGGAGUUUAUCAUG [A21U A39G A52C G58A G80A G83U C85A C93A], the “polymerase ribozyme fitness (log ratio)” value is not above -4.2.

Consider GGAUCUUCUCGAUCUAACAAUAAAGACAAAUCUGCCACAAAGCUUGAGAGCAUCUUCGGAUGCAGAGGCGGCAGCCUUCGGUGGCGAGAUAGCGCCAACGUUCUCAACUAUGACACCCAAAACGCGUGCUCCGUUGCAUGGUGUUUAUCAUG [A21U C87A G117C A137C A142U], for which the “polymerase ribozyme fitness (log ratio)” value is not above -4.2.

In the case of GGAUCUUCUCGAUCUAACAAUAAAGCCAAAUCUGCCACAAAGCUUGAGAGCCUUUUCGGAUACAGAGACGGCAGCCUUCGGUCGCGCGAUAGCGCCAACGUUCUCAACUAUGACACGCAAAACGCGUGCUCCGUUGAAGGGAGUUUAUCAUG [A21U A26C A52C C54U G62A G68A G83C U139G], the “polymerase ribozyme fitness (log ratio)” value is not above -4.2.

Turning to GGAUCUUCUCGAUCUAACAAUAAAGACAGAUAUGCCACAAAGCUUGAGAGCAUCUUCGGAUGCUGAGUCGGCAGCCUUCGGUGUCGCGAUAGCGCCAACGUUCUCAACUAUGACACGCAAUACGCGUGCUCCGUUGAAUGGAGUUUAUCAUG [A21U A29G C32A A64U G68U G84U A121U], the “polymerase ribozyme fitness (log ratio)” value was not above -4.2.

For the variant GGAUCUUCUCGAUCUAACAAUAAAGACAAAUCUGCCACAACGCUUGAGAGCAUCUUCGGAUGCAAAGGCGGCAGCCUUCGGUGGAGCGAUAGCGCCAACGUUCUCAACUAUGACACGCAAAACGCGUGCUCCGUUGAAUGGAGUUUAUCAUG [A21U A41C G65A C85A], the “polymerase ribozyme fitness (log ratio)” value is not above -4.2.

As to GGAUCUUCUCGAUCUAACAAUAAAGACAAAUCUGCCACAAAGCUUGAGAGCAUCUUGGGAUGCAGAGGCGGCAGCCUUCGGUGGCGCGAUAGAGCCAACGUUCUCAACUAUGACACGCAAAACGCGUGCUCCGUUGAAUGGAGUUUAUCAUG [A21U C57G C93A], the “polymerase ribozyme fitness (log ratio)” value was -2.34.

For the variant GGAUCUUCUCGAUCUAACAAUAUAGACAAAUCUGCCACAAAGCUUGAGAGCAUCUUCGGAUGCAGAGGCGGCAGCCUUCGGUGGCGCGAUAGCGCCAACGUUCUCAACUAUGACACGCAAAACGCGUGCUCCGUUGAAUGGAGUUUAUCAUG [A21U A23U], the “polymerase ribozyme fitness (log ratio)” value is not above -4.2.

Regarding GGAUCUUCUCGAUCUAACAAUAAAGACAAAUCUGCCAUAAAGCUUGAGAGCAUCUUCGGAUGCAGAGGCGGCAGCCUUCGGUGGCGCGAUAGCGCCAACGUUCUCAACUAUGACACGCAAAACGCGUGCUCCGUCGAAUGGAGUUUAUCAUG [A21U C38U U135C], the “polymerase ribozyme fitness (log ratio)” value is -3.08.

The record behind these values is the RNAGym collection of RNA variant scans (doi:10.1073/pnas.2313332121).
